# Laboratory results published in the supplement of paper PMC11865577.
# Assays:
# Test in all cases: pull-down binding Z-score (relative to library population); higher = stronger binding
# [1] = system: TO-3-N3 (biotin conjugate); details: RNA library: Library-2
# In short: (§1)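 Streptavidin beads bearing 100 pmol of a biotin-conjugated small molecule were incubated for 60 min at 25 °C with 1 μg of heat-folded, Cy5- or Cy3-end-labelled RNA library in phosphate/NaCl/KCl buffer. Hot SDS eluted the RNA that stayed bound after three washes, and this RNA was hybridised for 20 h at 55.5 °C to a DNA barcode microarray. Binding was expressed as a Z-score against the library mean and standard deviation, after subtraction of a beads-only signal and trimmed averaging of barcoded replicate probes.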
# [2] = system: TO-3-N3-2 (biotin conjugate); details: RNA library: Library-2
# In short: as §1
# [3] = system: G-clamp-N3 (biotin conjugate); details: RNA library: Library-1 (pre-miRNA loops + repeats)
# In short: as §1
# [4] = system: TO-N3-2 (biotin conjugate); details: RNA library: Library-2
# In short: as §1
# TO-N3 (biotin conjugate) = details: RNA library: Library-2
# In short: as §1
Sequence,pull-down binding Z-score [1],pull-down binding Z-score [2],pull-down binding Z-score [3],pull-down binding Z-score [4],pull-down binding Z-score (TO-N3 (biotin conjugate))
CUUUGUCUGACUACAAUAUUCAAAAG [hsa-mir-4426],0.0486,0.0275,-1.96,-0.569,-0.0832
AGUUGAACACUUGUUGGGACAACCU [hsa-mir-4421],0.939,0.156,-0.336,0.711,0.971
GGAGCUCUGUCCUGUCUCACUCAUUGCUCC [hsa-mir-6749],-0.331,-0.272,-0.199,0.177,-0.473
CAUUUGUGGCAUGGACCAUUUGUG [hsa-mir-4504],-0.874,-0.518,-0.183,-0.813,-0.959
CAGGGCGGUGCGGCAGCCGCCACC [hsa-mir-3621],0.771,0.241,-0.214,1.24,1.07
UGUGACCUGGAGCAGCUCAGGAGGGCUUCCUGGGUGAGGUGGCAGGUUACA [hsa-mir-4311],0.566,0.183,2.01,1.69,1.08
UUGUCGUUAAAAAUAGCAA [hsa-mir-548n],-0.497,-0.149,0.889,-0.863,-0.847
UGCGUUAGGAUUUCUGUAUCAUCCUCCUAACGCA [hsa-mir-3166],0.576,0.141,0.901,-0.758,0.306
UGUUGAGCGCAGUAAGACAACA [hsa-mir-3529],-0.51,-0.0511,0.892,-0.0925,-0.482
UUUUGCAUUUAAAGUAAUGGCCAAA [hsa-mir-548ay],-0.735,-0.285,2.31,-0.173,-0.77
CUUUCUGUUGUCUAAAAGAAAAGAACG [hsa-mir-521-1],-0.211,0.0499,0.795,0.0505,-0.124
AGUUAGAAUUCUUAAGUAUCAAAACUAAAU [hsa-mir-4760],0.216,0.252,-1.22,-0.12,0.106
AACAGCAGGAUUGGCUGUAGCUGUU [hsa-mir-2117],0.357,-0.324,0.593,0.369,0.185
CCUGAUGAAUCUGAGGCCAGG [hsa-mir-577],-0.271,0.118,1.14,0.326,-0.18
UUUCUGAAUUUGUGAGA [hsa-mir-4463],-0.00836,-0.191,-0.0109,-0.751,-0.277
AAAGAGGUGUUUCUACUCCAU [hsa-mir-3690-1_3690-2],-0.497,-0.0114,-1.18,-0.235,-0.517
CCAUGUAAUCUUUGG [hsa-mir-1302-5],0.507,0.112,-0.454,-0.0743,0.454
CAGCAGCAGCAGCAGCAGCAGCAGCAGCAGCAGCAGCAGCAGCAGCAG [r(CAG)16],0.922,-0.0193,1.2,1.29,1.6
CUACUAGUUUGUAGUAGUUCGUAGCAG [hsa-mir-3919],-0.438,0.295,0.56,0.637,-0.197

Sequence,pull-down binding Z-score [1],pull-down binding Z-score [2],pull-down binding Z-score [3],pull-down binding Z-score [4],pull-down binding Z-score (TO-N3 (biotin conjugate))
AUAUAGAUAUCAGCUACCUAUAU [hsa-mir-3144],-0.694,-0.329,-0.95,-1.38,-1.06
GCUUGCUGUUCCUCUCAACAGUAGUCAGGAAGC [hsa-mir-129-1],-0.169,-0.186,-0.381,-0.245,-0.219
UAGGAUUUGGGAGUUAUACUA [hsa-mir-5690],-0.528,-0.0337,0.541,-0.349,-0.492
ACGAUAUAGGUAUGUAUGUAUGUAUGUAUAAAAGCAGGGCAGUAUAUAUAUCGU [hsa-mir-4536-2],0.847,0.723,1.53,0.482,0.862
AGAAACCUACUUAUUACAUAGUUUACAUAAGAAGCGUGAU [hsa-mir-1322],-0.129,-0.0921,-0.594,-0.00549,0.0288
AUUCUGGACACCAG [hsa-mir-147b],0.0367,0.387,-0.497,0.326,0.311
ACUUCAGAUGCUUCAUGACA [hsa-mir-6865],-0.0886,-0.117,-0.511,-0.0136,-0.0452
ACACUGGGCUGCCCCCACUGCCCAGUGC [hsa-mir-4277],0.676,-0.357,-0.963,0.413,0.594
UGAGCUGUGAUGUUGCUCUCGAGCUGG [hsa-mir-769],0.732,0.336,-0.872,1.27,1.02
AGAUCCCCUGUUAGAGACGGGCC [hsa-mir-6840],0.114,0.351,-1.25,0.991,0.562
AGGCUUGGCACUUGAGGGAAAGCCU [hsa-mir-8059],0.451,0.0114,2.67,0.469,0.646
GCUCUGGGGAUUUGGUCUCACAGC [hsa-mir-3940],-0.54,-0.38,0.507,-0.339,-0.497
AUAGCACAAAGUCUUAUGGUACUGU [hsa-mir-3169],0.174,0.253,1.12,-0.178,0.199
AAUGCAUAGAAAGCAUU [hsa-mir-4272],-0.177,0.00602,1.58,-0.629,-0.421
UUUCAGAUAACUCGGGA [hsa-mir-4320],0.173,-0.229,-0.732,0.00433,0.116
GCUUCUCUUUCUCACCAGCAGC [hsa-mir-4467],-0.543,0.152,-1.87,-0.0165,-0.461
UUUCUGUUGUCUAAAAGAAAAGAAA [hsa-mir-527],-0.325,-0.186,0.0533,-0.575,-0.383
UACUAACAGCACUGGAGGGUGUA [hsa-mir-142],-0.0529,0.107,2.68,0.533,0.114
